From patent US20180155451A1 (published 2018) come the findings set out here.

Assay [1] concerns the target T1, FcγRIIIa extracellular domain with C-terminal His tag (human, UniProt P08637 17-208).
T1 construct: extracellular domain; Soluble receptor expressed in FreeStyle293 cells, used as analyte in Biacore; also called FcgRIIIa; 3a; not shown: His tag attached to the C terminus
The assay can be described thus: SPR (Biacore); ratio of He/Con_3a (FcγRIIIa) to He/Con_2b (FcγRIIb). Put shortly:
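Heterodimerized antibodies carrying an alteration in one H chain were captured onto antigen-peptide chips and probed with each activating or inhibitory FcγR by SPR (Biacore T100, 25 °C, HBS-EP+).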
In general terms: Surface plasmon resonance follows binding to a sensor surface in real time, without labels.

For assay [2], the target named is T2, FcγRIIb extracellular domain with C-terminal His tag (human, UniProt P31994 43-217).
T2 construct: extracellular domain; Soluble receptor expressed in FreeStyle293 cells, used as analyte in Biacore; also called FcgRIIb; 2b; not shown: His tag attached to the C terminus
T2 sequence (looked up): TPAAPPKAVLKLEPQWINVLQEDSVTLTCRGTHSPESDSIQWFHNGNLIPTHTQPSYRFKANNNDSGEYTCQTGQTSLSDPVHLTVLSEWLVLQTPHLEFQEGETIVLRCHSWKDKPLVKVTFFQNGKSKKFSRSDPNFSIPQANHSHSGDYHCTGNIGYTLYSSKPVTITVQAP
The assay can be described thus: SPR (Biacore), antibody captured via antigen peptide, FcγR as analyte; binding amount relative to control heterodimerized antibody. On the procedure:
(§1) The heterodimerized antibodies He Abs in which one of the H chains was introduced with an alteration were assayed for their binding activities to each activating FcγR and inhibitory FcγR according to the method described in Example 4. […] The activating FcγRs in FIGS. 26, 27, 28, and 29 are FcγRIa, FcγRIIa (R), FcγRIIa (H), and FcγRIIIa, respectively.
(§2) Analysis of interaction between objective antibody and the FcγR was carried out using Biacore T100 (GE Healthcare). HBS-EP+ (GE Healthcare) was used as the running buffer, and the measurement temperature was set to 25° C. Chips produced by immobilizing the antigen peptide by the amine coupling method to a Series S Sencor Chip CM5 (GE Healthcare), or alternatively, chips produced by allowing preliminarily biotinylated antigen peptides to interact with and immobilize onto a Series S Sensor Chip SA (certified) (GE Healthcare) were used. Antibodies of interest were captured onto an antigen peptide-immobilized chip, and allowed to interact to each FcγR diluted with running buffer. To regenerate and repeatedly use the chip, the antibodies captured on the chip were washed off by reacting 10 mM glycine-HCl, pH 1.5.

In assay [3] the target is T1, FcγRIIIa extracellular domain with …. The assay is described as above. On the procedure: as §1, §2
A further assay deals with T3, FcgRIIIa F (human, UniProt P08637 17-208).
T3 construct: extracellular domain; also called FcγRIIIa F; 3aF; not shown: His tag attached to the C terminus
Description: SPR (Biacore); binding of the heterodimerized antibody relative to GpH7-A5/GpH7-B3/GpL16-k0 = 100.

T3 sequence (P08637 17-208): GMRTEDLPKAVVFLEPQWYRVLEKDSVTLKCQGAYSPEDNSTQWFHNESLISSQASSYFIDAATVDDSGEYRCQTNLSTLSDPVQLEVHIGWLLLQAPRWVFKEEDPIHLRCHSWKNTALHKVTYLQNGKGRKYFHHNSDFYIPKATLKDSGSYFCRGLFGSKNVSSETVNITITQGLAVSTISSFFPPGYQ
T1 sequence (P08637 17-208): as above

B1: GpH7-A5/GpH7-B3 variant K334_14T/GpL16-k0 (heterodimerized antibody, He Ab) (antibody, human IgG1, kappa)
heavy 1: not shown
heavy 2: not shown
light: DIVMTQSPLSLPVTPGEPASISCQASESLVHSNRNTYLHWYLQKPGQSPQLLIYKVSNRFSGVPDRFSGSGSGTDFTLKISRVEAEDVGVYYCSQNTHVPPTFGQGTKVEIERTVAAPSVFIFPPSDEQLKSGTASVVCLLNNFYPREAKVQWKVDNALQSGNSQESVTEQDSKDSTYSLSSTLTLSKADYEKHKVYACEVTHQGLSSPVTKSFNRGEC
notes: Anti-glypican-3 IgG1 heterodimerized antibody; the alteration stands only in the GpH7-B3 chain; Positions in EU numbering; also called K334T
As for B1, the “IIIa/IIb (He_3a/2b)” value in assay [1] was determined as 1.23 ratio. The “He/Con_2b (IIb binding)” value in assay [2] was 115 relative binding, GpH7-A5/GpH7-B3/GpL16-k0 = 100. Further, in assay [3], the “He/Con_3a (IIIa binding)” value was 141 relative binding, GpH7-A5/GpH7-B3/GpL16-k0 = 100.

B2: GpH7-A5/GpH7-B3 variant (H268D)/GpL16-k0 (antibody, human IgG1, kappa)
heavy 1: not shown
heavy 2: not shown
light: DIVMTQSPLSLPVTPGEPASISCQASESLVHSNRNTYLHWYLQKPGQSPQLLIYKVSNRFSGVPDRFSGSGSGTDFTLKISRVEAEDVGVYYCSQNTHVPPTFGQGTKVEIERTVAAPSVFIFPPSDEQLKSGTASVVCLLNNFYPREAKVQWKVDNALQSGNSQESVTEQDSKDSTYSLSSTLTLSKADYEKHKVYACEVTHQGLSSPVTKSFNRGEC
notes: also called H268_09D; He Ab
Regarding B2, in the assay with FcgRIIIa F, the He/Con_3aF amounted to 195.

B3: GpH7-A5/GpH7-B3 variant (K334I)/GpL16-k0 (antibody, human IgG1, kappa)
heavy 1: not shown
heavy 2: not shown
light: DIVMTQSPLSLPVTPGEPASISCQASESLVHSNRNTYLHWYLQKPGQSPQLLIYKVSNRFSGVPDRFSGSGSGTDFTLKISRVEAEDVGVYYCSQNTHVPPTFGQGTKVEIERTVAAPSVFIFPPSDEQLKSGTASVVCLLNNFYPREAKVQWKVDNALQSGNSQESVTEQDSKDSTYSLSSTLTLSKADYEKHKVYACEVTHQGLSSPVTKSFNRGEC
notes: also called K334_07I; He Ab
Molecule B3 returned a He/Con_3aF in the assay with FcgRIIIa F of 156.

B4: GpH7-A5/GpH7-B3 variant (A330M)/GpL16-k0 (antibody, human IgG1, kappa)
heavy 1: not shown
heavy 2: not shown
light: DIVMTQSPLSLPVTPGEPASISCQASESLVHSNRNTYLHWYLQKPGQSPQLLIYKVSNRFSGVPDRFSGSGSGTDFTLKISRVEAEDVGVYYCSQNTHVPPTFGQGTKVEIERTVAAPSVFIFPPSDEQLKSGTASVVCLLNNFYPREAKVQWKVDNALQSGNSQESVTEQDSKDSTYSLSSTLTLSKADYEKHKVYACEVTHQGLSSPVTKSFNRGEC
notes: also called A330_06M; He Ab
B4 displayed a He/Con_3aF in the assay with FcgRIIIa F of 139.

B5: GpH7-A5/GpH7-B3 variant (K326D)/GpL16-k0 (antibody, human IgG1, kappa)
heavy 1: not shown
heavy 2: not shown
light: DIVMTQSPLSLPVTPGEPASISCQASESLVHSNRNTYLHWYLQKPGQSPQLLIYKVSNRFSGVPDRFSGSGSGTDFTLKISRVEAEDVGVYYCSQNTHVPPTFGQGTKVEIERTVAAPSVFIFPPSDEQLKSGTASVVCLLNNFYPREAKVQWKVDNALQSGNSQESVTEQDSKDSTYSLSSTLTLSKADYEKHKVYACEVTHQGLSSPVTKSFNRGEC
notes: also called K326_09D; He Ab
Regarding B5, the He/Con_3aF with FcgRIIIa F was 148.

B6: GpH7-A5/GpH7-B3 variant (K334E)/GpL16-k0 (antibody, human IgG1, kappa)
heavy 1: not shown
heavy 2: not shown
light: DIVMTQSPLSLPVTPGEPASISCQASESLVHSNRNTYLHWYLQKPGQSPQLLIYKVSNRFSGVPDRFSGSGSGTDFTLKISRVEAEDVGVYYCSQNTHVPPTFGQGTKVEIERTVAAPSVFIFPPSDEQLKSGTASVVCLLNNFYPREAKVQWKVDNALQSGNSQESVTEQDSKDSTYSLSSTLTLSKADYEKHKVYACEVTHQGLSSPVTKSFNRGEC
notes: also called K334_10E; He Ab
Regarding B6, in the assay with FcgRIIIa F, the He/Con_3aF turned out to be 186.

B7: GpH7-A5/GpH7-B3 variant K334_19Q/GpL16-k0 (heterodimerized antibody, He Ab) (antibody, human IgG1, kappa)
heavy 1: not shown
heavy 2: not shown
light: DIVMTQSPLSLPVTPGEPASISCQASESLVHSNRNTYLHWYLQKPGQSPQLLIYKVSNRFSGVPDRFSGSGSGTDFTLKISRVEAEDVGVYYCSQNTHVPPTFGQGTKVEIERTVAAPSVFIFPPSDEQLKSGTASVVCLLNNFYPREAKVQWKVDNALQSGNSQESVTEQDSKDSTYSLSSTLTLSKADYEKHKVYACEVTHQGLSSPVTKSFNRGEC
notes: Anti-glypican-3 IgG1 heterodimerized antibody; the alteration stands only in the GpH7-B3 chain; Positions in EU numbering; also called K334Q
For the molecule B7, the “IIIa/IIb (He_3a/2b)” value in assay [1] came to 1.25 ratio. For the same molecule, the “He/Con_2b (IIb binding)” value in assay [2] was 109 relative binding, GpH7-A5/GpH7-B3/GpL16-k0 = 100. For the same molecule, in assay [3], the “He/Con_3a (IIIa binding)” value was 136 relative binding, GpH7-A5/GpH7-B3/GpL16-k0 = 100.

B8: GpH7-A5/GpH7-B3 variant K334_20W/GpL16-k0 (heterodimerized antibody, He Ab) (antibody, human IgG1, kappa)
heavy 1: not shown
heavy 2: not shown
light: DIVMTQSPLSLPVTPGEPASISCQASESLVHSNRNTYLHWYLQKPGQSPQLLIYKVSNRFSGVPDRFSGSGSGTDFTLKISRVEAEDVGVYYCSQNTHVPPTFGQGTKVEIERTVAAPSVFIFPPSDEQLKSGTASVVCLLNNFYPREAKVQWKVDNALQSGNSQESVTEQDSKDSTYSLSSTLTLSKADYEKHKVYACEVTHQGLSSPVTKSFNRGEC
notes: Anti-glypican-3 IgG1 heterodimerized antibody; the alteration stands only in the GpH7-B3 chain; Positions in EU numbering; also called K334W
For the molecule B8, in assay [1], the “IIIa/IIb (He_3a/2b)” value came to 1.23 ratio. Further, the “He/Con_2b (IIb binding)” value in assay [2] was 104 relative binding, GpH7-A5/GpH7-B3/GpL16-k0 = 100. For the same molecule, the “He/Con_3a (IIIa binding)” value in assay [3] is 128 relative binding, GpH7-A5/GpH7-B3/GpL16-k0 = 100.
